Source: patent US20210032347A1 (JIANGSU HANSOH PHARMACEUTICAL GROUP, published 2021)
Where two headings read alike, the source gives them in different places. Blank lines part the entries; values can stand above or below the binder they belong to.

Columns and labels:
[1] = target: T1, B7-H4 expressed on cells (MX-1 cells; CHO-S cells stably expressing B7-H4) (human, UniProt Q7Z7D3 25-282); assay: flow cytometry (FACS) on MX-1 cells
T1 construct: whole, on cells; also called huB7-H4; antigens expressed by cells
T1 sequence (looked up): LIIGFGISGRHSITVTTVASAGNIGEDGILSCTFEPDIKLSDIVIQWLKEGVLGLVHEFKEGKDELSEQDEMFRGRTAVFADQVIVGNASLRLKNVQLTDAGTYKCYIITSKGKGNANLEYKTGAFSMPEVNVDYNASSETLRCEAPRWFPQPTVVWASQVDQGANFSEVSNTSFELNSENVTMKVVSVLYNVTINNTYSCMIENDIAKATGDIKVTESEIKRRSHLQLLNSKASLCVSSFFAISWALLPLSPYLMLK
Description: The cultured MX-1 cells were collected, cell density was adjusted with PBS pH 7.4, then plated onto a 96-well V-shaped bottom plate with 1×10⁵ cells per well, and centrifuged at 2000 rpm for 5 minutes to remove supernatant. 100 μl of the serially diluted chimeric antibody solution was added (diluted with 0.5% BSA in PBS to obtain a gradient of 3-fold dilutions, starting from 1 μM, with a total of 10 doses) into each well, mixed, and incubated for 1 hour at 4° C. with shaking; the culture was centrifuged at 2000 rpm for 5 minutes to remove the supernatant, and the cells were washed twice with PBS, and 100 μl of FITC-labeled goat anti-human secondary antibody (Abeam, cat #ab97224) diluted with 0.5% BSA in PBS was added into each well, mixed well and incubated for 30 minutes at 4° C. in a shaker. Centrifugation was performed at 2000 rpm for 5 minutes and the supernatant was removed. Cells were washed twice with PBS and resuspended in PBS. The signals were detected using flow cytometer (BECKMANCOULTER, model DxFLEX), and the concentration curve was plotted and the results were analyzed. As indicated in the table and figure, humanized antibodies 2F7, 2F8, 2G6 and 1C9 show positive bindings to MX-1 cells on which B7-H4 was highly expressed.

[2] = target: T2, Human B7-H4 with HisFlag tag (huB7-H4-his) (human, UniProt Q7Z7D3 25-258); assay: SPR Biacore T200, antibody coupled to CM5 chip, hu-B7-H4-his in flow, 1:1 model
T2 construct: also called HuB7-H4 His protein; huB7-H4-HF
T2 sequence: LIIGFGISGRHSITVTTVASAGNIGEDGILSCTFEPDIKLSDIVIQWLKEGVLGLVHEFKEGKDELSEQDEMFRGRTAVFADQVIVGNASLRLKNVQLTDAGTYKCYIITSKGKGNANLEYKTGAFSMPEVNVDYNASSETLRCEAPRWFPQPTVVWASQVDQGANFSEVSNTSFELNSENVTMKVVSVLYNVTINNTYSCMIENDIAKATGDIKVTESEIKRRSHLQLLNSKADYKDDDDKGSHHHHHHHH

[3] = target: T3, antigen fragment P12 (TVASAGNIGEDGILSCTFEP) (human); assay: indirect ELISA on antigen fragment
T3 peptide: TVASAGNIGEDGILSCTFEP

[4] = target: T4, antigen fragment TVASAGNIGEDGIASCTFEP (human); assay: indirect ELISA on antigen fragment, alanine scan
T4 construct: Alanine-scan variant of P12; the entry already carries the alanine; also called P12 alanine mutant (L to A)
T4 peptide: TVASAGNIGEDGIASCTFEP

[5] = target: T5, antigen fragment TVASAGNIGEDGILSCTFEA (human); assay: indirect ELISA on antigen fragment, alanine scan
T5 construct: Alanine-scan variant of P12; the entry already carries the alanine; also called P12 alanine mutant (P to A)
T5 peptide: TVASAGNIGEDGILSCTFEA

[6] = target: T6, antigen fragment TVASAGNIGEDGALSCTFEP (human); assay: indirect ELISA on antigen fragment, alanine scan
T6 construct: Alanine-scan variant of P12; the entry already carries the alanine; also called P12 alanine mutant (I to A)
T6 peptide: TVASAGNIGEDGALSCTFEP

[7] = target: T7, antigen fragment TVASAGNIGEDGILSCTAEP (human); assay: indirect ELISA on antigen fragment, alanine scan
T7 construct: Alanine-scan variant of P12; the entry already carries the alanine; also called P12 alanine mutant (F to A)
T7 peptide: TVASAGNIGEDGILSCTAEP

[8] = target: T8, antigen fragment TVASAGNIGEDGILSCAFEP (human); assay: indirect ELISA on antigen fragment, alanine scan
T8 construct: Alanine-scan variant of P12; the entry already carries the alanine; also called P12 alanine mutant (T to A)
T8 peptide: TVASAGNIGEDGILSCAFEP

[9] = target: T9, antigen fragment TVASAGNIGEDGILSATFEP (human); assay: indirect ELISA on antigen fragment, alanine scan
T9 construct: Alanine-scan variant of P12; the entry already carries the alanine; also called P12 alanine mutant (C to A)
T9 peptide: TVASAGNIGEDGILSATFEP

[10] = target: T3, antigen fragment P12 …; assay: indirect ELISA on antigen fragment
[11] = target: T4, antigen fragment TVASAGNIGEDGIASCTFEP; assay: indirect ELISA on antigen fragment, alanine scan
[12] = target: T7, antigen fragment TVASAGNIGEDGILSCTAEP; assay: indirect ELISA on antigen fragment, alanine scan
[13] = target: T9, antigen fragment TVASAGNIGEDGILSATFEP; assay: indirect ELISA on antigen fragment, alanine scan

EC50 [1]: 14.3 nM
Kd [2]: ≤ 0.0135 nM
koff [2]: ≤ 1e-05 s⁻¹
kon [2]: 741000 M⁻¹ s⁻¹
EC50 [3]: 793 nM
EC50 [4]: 3160 nM
EC50 [5]: 2370 nM
EC50 [6]: 2630 nM
EC50 [7]: 2600 nM
EC50 [8]: 2290 nM
EC50 [9]: 3480 nM
B1: humanized anti-B7-H4 antibody hu2G6 (antibody, human IgG1, kappa, V domains shown)
VH: EVQLLESGGGLVQPGGSLRLSCAASGFTFSRYGMSWVRQAPGKGLEWVSGINGGGSYTYYLDTVKGRFTISRDNARNTLYLQMSSLRAEDTAVYYCVSQGSNYYFDYWGQGTLVTVSS
VL: DIRMTQSPSSLSASVGDRVTITCHASQGISSNIGWLQQKPGKAPKALIYHGTNLEDGVPSRFSGSGSGADYTLTISSLQPEDFATYYCVQYAQFPYTFGGGTKVEIKR
notes: human IgG1 / kappa; also called humanized antibody 2G6

EC50 [1]: 7.25 nM
Kd [2]: ≤ 0.0298 nM
koff [2]: ≤ 1e-05 s⁻¹
kon [2]: 335000 M⁻¹ s⁻¹
EC50 [10]: 272 nM
EC50 [11]: 467 nM
EC50 [12]: 488 nM
EC50 [13]: 292 nM
B2: humanized anti-B7-H4 antibody hu1C9 (antibody, human IgG1, kappa, V domains shown)
VH: EVQLVQSGAEVKKPGASVKVSCKASGDTFTTYWMNWVRQAPGQRLEWMGGIYLNRGSSEYNEKFKGRVTLTVDTSASTAYMELSSLRSEDTAVYYCARDSRFSYWGQGTLVTVSS
VL: DIQMTQSPSSLSASVGDRVTITCKASQDVSTAVAWYQQKPGKAPKLLISSASYRYTGVPSRFSGSGSGTDFTFTISSLQPEDIATYYCQQHYNTPLTFGGGTKVEIKR
notes: human IgG1 / kappa; also called humanized antibody 1C9
